Data published in patent US20180017572A1 (Hoffmann-La Roche, published 2018).

B1: bispecific anti-HER2 antibody, common light chain (bispecific antibody, human IgG1, kappa)
light: DIQMTQSPSSLSASVGDRVTITCKASQDVSTAVAWYQQKPGKAPKLLIYSASFRYTGVPSRFSGSRSGTDFTLTISSLQPEDFATYYCQQHYTTPPTFGQGTKVEIKRTVAAPSVFIFPPSDEQLKSGTASVVCLLNNFYPREAKVQWKVDNALQSGNSQESVTEQDSKDSTYSLSSTLTLSKADYEKHKVYACEVTHQGLSSPVTKSFNRGEC
heavy 1: not shown
heavy 2: not shown
notes: Knob-into-hole bispecific antibody with a common light chain
B2: bispecific anti-HER2 antibody, common light chain, glycoengineered (bispecific antibody, human IgG1, kappa)
light: B1 light
heavy 1: not shown
heavy 2: not shown
notes: The glycan change is not described
B3: bispecific anti-HER2 antibody, CrossMab format (bispecific antibody, human IgG1, kappa)
heavy 1: not shown
heavy 2: not shown
light 1: DIQLTQPPSVSVAPGQTARITCGASQDVSTAVAWYQQKPGQAPVLVVYSASFLYSGIPSRFSGSRSGTDFTLTISRVEAGDEADYYCQQHYTTPPTFGTGTKVTVLRTVAAPSVFIFPPSDEQLKSGTASVVCLLNNFYPREAKVQWKVDNALQSGNSQESVTEQDSKDSTYSLSSTLTLSKADYEKHKVYACEVTHQGLSSPVTKSFNRGEC
light 2: DIQMTQSPSSLSASVGDRVTITCKASQDVSIGVAWYQQKPGKAPKLLIYSASYRYTGVPSRFSGSGSGTDFTLTISSLQPEDFATYYCQQYYIYPYTFGQGTKVEIKSSASTKGPSVFPLAPSSKSTSGGTAALGCLVKDYFPEPVTVSWNSGALTSGVHTFPAVLQSSGLYSLSSVVTVPSSSLGTQTYICNVNHKPSNTKVDKKVEPKSC
notes: CrossMab format with four different chains

Target: T1, complement factor C1q (UniProt P02745 23-245; P02746 28-253; P02747 29-245)
T1 construct: also called Clq; recombinant complement factor C1q
T1 sequence (P02745 23-245 limits assumed, chain 1 of 3): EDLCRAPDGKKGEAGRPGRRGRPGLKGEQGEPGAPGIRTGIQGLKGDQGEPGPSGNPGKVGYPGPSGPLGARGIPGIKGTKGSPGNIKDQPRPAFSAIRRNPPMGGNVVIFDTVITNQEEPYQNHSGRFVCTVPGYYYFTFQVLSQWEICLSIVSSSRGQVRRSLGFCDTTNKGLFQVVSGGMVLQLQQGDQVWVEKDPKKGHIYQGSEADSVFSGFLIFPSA
T1 sequence (P02746 28-253 limits assumed, chain 2 of 3): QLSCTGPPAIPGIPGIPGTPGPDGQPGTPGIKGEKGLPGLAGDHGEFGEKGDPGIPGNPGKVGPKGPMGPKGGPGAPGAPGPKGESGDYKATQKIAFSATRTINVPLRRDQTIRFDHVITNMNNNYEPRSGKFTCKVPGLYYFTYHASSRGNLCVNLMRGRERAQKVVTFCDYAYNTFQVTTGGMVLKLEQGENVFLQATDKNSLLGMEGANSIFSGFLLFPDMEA
T1 sequence (P02747 29-245 limits assumed, chain 3 of 3): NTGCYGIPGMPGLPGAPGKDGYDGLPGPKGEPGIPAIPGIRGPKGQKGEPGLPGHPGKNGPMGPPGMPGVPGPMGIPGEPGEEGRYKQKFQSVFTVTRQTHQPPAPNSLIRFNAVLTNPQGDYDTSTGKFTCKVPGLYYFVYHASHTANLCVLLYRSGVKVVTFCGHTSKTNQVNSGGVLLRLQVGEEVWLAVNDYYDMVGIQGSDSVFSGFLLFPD
Assay: flow cytometry: BT-474 cells with 10 µg/mL antibody, then 10 µg/mL C1q, detected with PE-labeled anti-C1q antibody
Experimental: About 3×10⁵ BT-474 cells were incubated with 10 μg/mL of indicated antibody on ice in RPMI 1640 supplemented with 10% FCS. After 30 min. incubation on ice 10 μg/mL C1q (Sigma Aldrich, Cat. No. C1740) was added. The incubation was continued thereafter for an additionally 20 min. on ice. After washing the cells were resuspended in 200 μL medium and counterstained with a PE-labeled anti-C1q antibody (Cedarlane, Cat. No. CL7611PE-SP). After an incubation time of 30 min. on ice cells were washed twice and analyzed on a FACS Canto

Binder | PE-signal (geomean) [geomean PE-signal]
B1 | 1440
B2 | 1040
B3 | 489
